First the molecules themselves.
B1: glmS ribozyme (parent)
chain: AUAAAAGCGCCAGAACUACAGAAAUGUAGUUGACGAGGAGGAGGUUUAUCGAAUUUUCGGCGGAUGCCUCCAAA

Holding throughout (conditions): with glucosamine-6-phosphate
Series [1] covers variants of B1. The experiment in a line: self-cleavage kobs at 160 uM GlcN6P; higher = faster cleavage; RNA array. A digest of the protocol:
(§1)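 Tiles bearing barcoded ribozyme variants, transcribed in situ by E. coli RNA polymerase on sequenced MiSeq chips, were imaged over ~14 h at 37 °C using a hybridised Cy3 probe. Glucosamine-6-phosphate was supplied at 40 μM to 10 mM in HEPES/KCl/Mg(OAc)2 buffer. kobs came from one- or two-exponential decay fits to normalised per-tile medians, and weighted Michaelis–Menten fits then provided kcat and KM.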

Variants of B1 are the subject of series [2]. The experiment in a line: self-cleavage kobs at 640 uM GlcN6P; higher = faster cleavage; RNA array. A digest of the protocol: as §1
Series [3] covers variants of B1. The experiment in a line: self-cleavage kobs at 10000 uM GlcN6P; higher = faster cleavage; RNA array. A digest of the protocol:
as §1

Variants of B1 are the subject of series [4]. Put plainly: self-cleavage kobs at 2500 uM GlcN6P; higher = faster cleavage; RNA array. A digest of the protocol: as §1
Series [5] covers variants of B1. The experiment in a line: self-cleavage kobs at 40 uM GlcN6P; higher = faster cleavage; RNA array. A digest of the protocol: as §1

± gives the standard error. Fewer inactive variants are shown than the library holds.

In the case of A33C G51U, in the series with glucosamine-6-phosphate [1], the “self-cleavage kobs at 160 uM GlcN6P” value is less than 1e-05 s⁻¹. The “self-cleavage kobs at 640 uM GlcN6P” value with glucosamine-6-phosphate [2] is less than 1e-05 s⁻¹. Further, the “self-cleavage kobs at 10000 uM GlcN6P” value with glucosamine-6-phosphate [3] was less than 1e-05 s⁻¹.

As to A52C U65A, in the series with glucosamine-6-phosphate [1], the “self-cleavage kobs at 160 uM GlcN6P” value is less than 1e-05 s⁻¹. Further, the “self-cleavage kobs at 640 uM GlcN6P” value with glucosamine-6-phosphate [2] is less than 1e-05 s⁻¹. In addition, the “self-cleavage kobs at 2500 uM GlcN6P” value with glucosamine-6-phosphate [4] is less than 1e-05 s⁻¹. Moreover, in the series with glucosamine-6-phosphate [3], the “self-cleavage kobs at 10000 uM GlcN6P” value is less than 1e-05 s⁻¹.

Turning to G13A U30A U31A A42C U46G, the “self-cleavage kobs at 160 uM GlcN6P” value with glucosamine-6-phosphate [1] was less than 1e-05 s⁻¹. The “self-cleavage kobs at 2500 uM GlcN6P” value with glucosamine-6-phosphate [4] was less than 1e-05 s⁻¹.

Take G35U A39G: the “self-cleavage kobs at 40 uM GlcN6P” value in the series with glucosamine-6-phosphate [5] was less than 1e-05 s⁻¹. For the same variant, in the series with glucosamine-6-phosphate [1], the “self-cleavage kobs at 160 uM GlcN6P” value is less than 1e-05 s⁻¹. In the series with glucosamine-6-phosphate [2], the “self-cleavage kobs at 640 uM GlcN6P” value is less than 1e-05 s⁻¹. The “self-cleavage kobs at 2500 uM GlcN6P” value with glucosamine-6-phosphate [4] is less than 1e-05 s⁻¹. Moreover, the “self-cleavage kobs at 10000 uM GlcN6P” value in the series with glucosamine-6-phosphate [3] was less than 1e-05 s⁻¹.

As for G29C G41U G63C C68A, the “self-cleavage kobs at 160 uM GlcN6P” value in the series with glucosamine-6-phosphate [1] is less than 1e-05 s⁻¹. The “self-cleavage kobs at 640 uM GlcN6P” value with glucosamine-6-phosphate [2] was less than 1e-05 s⁻¹. The “self-cleavage kobs at 2500 uM GlcN6P” value with glucosamine-6-phosphate [4] is less than 1e-05 s⁻¹.

Take G7U G60C G66U: the “self-cleavage kobs at 160 uM GlcN6P” value in the series with glucosamine-6-phosphate [1] was less than 1e-05 s⁻¹.

As to A52C G62C, the “self-cleavage kobs at 40 uM GlcN6P” value in the series with glucosamine-6-phosphate [5] was less than 1e-05 s⁻¹. Moreover, in the series with glucosamine-6-phosphate [1], the “self-cleavage kobs at 160 uM GlcN6P” value was less than 1e-05 s⁻¹. Besides, in the series with glucosamine-6-phosphate [2], the “self-cleavage kobs at 640 uM GlcN6P” value was less than 1e-05 s⁻¹. Further, the “self-cleavage kobs at 2500 uM GlcN6P” value with glucosamine-6-phosphate [4] is less than 1e-05 s⁻¹. In addition, the “self-cleavage kobs at 10000 uM GlcN6P” value in the series with glucosamine-6-phosphate [3] is less than 1e-05 s⁻¹.

For the variant G32C G44C, in the series with glucosamine-6-phosphate [5], the “self-cleavage kobs at 40 uM GlcN6P” value was less than 1e-05 s⁻¹. Further, the “self-cleavage kobs at 160 uM GlcN6P” value with glucosamine-6-phosphate [1] is less than 1e-05 s⁻¹. The “self-cleavage kobs at 2500 uM GlcN6P” value with glucosamine-6-phosphate [4] is less than 1e-05 s⁻¹. The “self-cleavage kobs at 10000 uM GlcN6P” value in the series with glucosamine-6-phosphate [3] is less than 1e-05 s⁻¹.

For the variant G40C A48C, in the series with glucosamine-6-phosphate [5], the “self-cleavage kobs at 40 uM GlcN6P” value was less than 1e-05 s⁻¹. Moreover, the “self-cleavage kobs at 160 uM GlcN6P” value with glucosamine-6-phosphate [1] was less than 1e-05 s⁻¹. Also, the “self-cleavage kobs at 640 uM GlcN6P” value with glucosamine-6-phosphate [2] was less than 1e-05 s⁻¹.

As for C10G G38U U65G, the “self-cleavage kobs at 40 uM GlcN6P” value with glucosamine-6-phosphate [5] was less than 1e-05 s⁻¹. The “self-cleavage kobs at 10000 uM GlcN6P” value in the series with glucosamine-6-phosphate [3] was less than 1e-05 s⁻¹.

With G7C A12G A33U G51U, the “self-cleavage kobs at 160 uM GlcN6P” value in the series with glucosamine-6-phosphate [1] is less than 1e-05 s⁻¹.

As for G43A U65C, in the series with glucosamine-6-phosphate [1], the “self-cleavage kobs at 160 uM GlcN6P” value was less than 1e-05 s⁻¹. Also, the “self-cleavage kobs at 640 uM GlcN6P” value with glucosamine-6-phosphate [2] is less than 1e-05 s⁻¹. In the series with glucosamine-6-phosphate [4], the “self-cleavage kobs at 2500 uM GlcN6P” value is less than 1e-05 s⁻¹.

Take U54A C67U: in the series with glucosamine-6-phosphate [5], the “self-cleavage kobs at 40 uM GlcN6P” value stood at 0.000285 ± 9.7e-05 s⁻¹. Also, the “self-cleavage kobs at 160 uM GlcN6P” value with glucosamine-6-phosphate [1] worked out at 0.000312 ± 9.1e-05 s⁻¹. Moreover, the “self-cleavage kobs at 640 uM GlcN6P” value with glucosamine-6-phosphate [2] was determined as 0.00116 ± 0.00032 s⁻¹. In addition, the “self-cleavage kobs at 2500 uM GlcN6P” value in the series with glucosamine-6-phosphate [4] is 0.00976 ± 0.0027 s⁻¹. Further, the “self-cleavage kobs at 10000 uM GlcN6P” value in the series with glucosamine-6-phosphate [3] was found to be 0.00584 ± 0.0013 s⁻¹.

In the case of C10G G37C U47A U57A G66C C70G, the “self-cleavage kobs at 40 uM GlcN6P” value with glucosamine-6-phosphate [5] is less than 1e-05 s⁻¹. In addition, in the series with glucosamine-6-phosphate [3], the “self-cleavage kobs at 10000 uM GlcN6P” value was less than 1e-05 s⁻¹.

As for A36C G41C, the “self-cleavage kobs at 160 uM GlcN6P” value with glucosamine-6-phosphate [1] is less than 1e-05 s⁻¹. Moreover, the “self-cleavage kobs at 640 uM GlcN6P” value with glucosamine-6-phosphate [2] is less than 1e-05 s⁻¹. Further, in the series with glucosamine-6-phosphate [4], the “self-cleavage kobs at 2500 uM GlcN6P” value is less than 1e-05 s⁻¹. The “self-cleavage kobs at 10000 uM GlcN6P” value with glucosamine-6-phosphate [3] was less than 1e-05 s⁻¹.

For G13C U57G, the “self-cleavage kobs at 40 uM GlcN6P” value with glucosamine-6-phosphate [5] is less than 1e-05 s⁻¹.

As to U31G U54G, the “self-cleavage kobs at 40 uM GlcN6P” value in the series with glucosamine-6-phosphate [5] turned out to be 0.000298 ± 5.4e-05 s⁻¹. Moreover, in the series with glucosamine-6-phosphate [1], the “self-cleavage kobs at 160 uM GlcN6P” value is 0.000493 ± 8.5e-05 s⁻¹. In addition, the “self-cleavage kobs at 640 uM GlcN6P” value in the series with glucosamine-6-phosphate [2] came to 0.00263 ± 0.00063 s⁻¹. Besides, the “self-cleavage kobs at 2500 uM GlcN6P” value with glucosamine-6-phosphate [4] was 0.00445 ± 0.00094 s⁻¹. In addition, in the series with glucosamine-6-phosphate [3], the “self-cleavage kobs at 10000 uM GlcN6P” value stood at 0.0119 ± 0.0031 s⁻¹.

A14C U55G: the “self-cleavage kobs at 40 uM GlcN6P” value with glucosamine-6-phosphate [5] amounted to 9.05e-05 ± 2.8e-05 s⁻¹. Further, the “self-cleavage kobs at 10000 uM GlcN6P” value with glucosamine-6-phosphate [3] worked out at 0.00435 ± 0.0012 s⁻¹.

With A39C A42U C67G, the “self-cleavage kobs at 40 uM GlcN6P” value in the series with glucosamine-6-phosphate [5] was less than 1e-05 s⁻¹. In the series with glucosamine-6-phosphate [4], the “self-cleavage kobs at 2500 uM GlcN6P” value is less than 1e-05 s⁻¹.

With G35U C71U, the “self-cleavage kobs at 160 uM GlcN6P” value with glucosamine-6-phosphate [1] was less than 1e-05 s⁻¹. In addition, the “self-cleavage kobs at 640 uM GlcN6P” value with glucosamine-6-phosphate [2] was less than 1e-05 s⁻¹. Moreover, in the series with glucosamine-6-phosphate [4], the “self-cleavage kobs at 2500 uM GlcN6P” value was less than 1e-05 s⁻¹. In the series with glucosamine-6-phosphate [3], the “self-cleavage kobs at 10000 uM GlcN6P” value is less than 1e-05 s⁻¹.

Take G9A U56G: the “self-cleavage kobs at 40 uM GlcN6P” value with glucosamine-6-phosphate [5] is less than 1e-05 s⁻¹. Further, the “self-cleavage kobs at 160 uM GlcN6P” value with glucosamine-6-phosphate [1] was less than 1e-05 s⁻¹.

Consider C34A G35C, for which, in the series with glucosamine-6-phosphate [1], the “self-cleavage kobs at 160 uM GlcN6P” value is less than 1e-05 s⁻¹. The “self-cleavage kobs at 2500 uM GlcN6P” value with glucosamine-6-phosphate [4] was less than 1e-05 s⁻¹.
